Data: patent US20170121318, “USE OF SMALL MOLECULE INHIBITORS TO KLF10 FOR MODULATION OF T REGULATORY CELLS AND CANCER IMMUNOTHERAPY” (THE BRIGHAM AND WOMEN'S HOSPITAL, INC., published 2017)

Target: KLF10 (TIEG1) (UniProt Q13118 Q13118:1-480)
Experiment: EMSA; 100 ng protein, 5 fmol probe, 5 mM MgCl2, poly(dI-dC), 0.05% NP-40, room temperature; binding inhibited by compounds #48, #48-15, #15-09
Conditions: tags: GST fusion (GST-KLF10); Novus Biologicals; label: 3' biotin
Experimental: The identified small molecule compounds were next examined for effects on KLF10 DNA-protein binding.
KLF10 recombinant protein was obtained from Novus Biologicals. […] End-labeled oligos (1 μmol/L) were annealed in a buffer system with 10 mM Tris, 50 mM NaCl, pH 8.0 by heating at 95° C. for 5 min, then slowly cooled to 65° C. for 30 min incubation, and cooled to room temperature. […] Compounds were incubated with KLF10 in a reaction system for 4 hrs at room temperature, and then Biotin-labeled probes were added for a 1 hr incubation.

KLF10 (TIEG1), sequence (Q13118 whole entry, one chain of several): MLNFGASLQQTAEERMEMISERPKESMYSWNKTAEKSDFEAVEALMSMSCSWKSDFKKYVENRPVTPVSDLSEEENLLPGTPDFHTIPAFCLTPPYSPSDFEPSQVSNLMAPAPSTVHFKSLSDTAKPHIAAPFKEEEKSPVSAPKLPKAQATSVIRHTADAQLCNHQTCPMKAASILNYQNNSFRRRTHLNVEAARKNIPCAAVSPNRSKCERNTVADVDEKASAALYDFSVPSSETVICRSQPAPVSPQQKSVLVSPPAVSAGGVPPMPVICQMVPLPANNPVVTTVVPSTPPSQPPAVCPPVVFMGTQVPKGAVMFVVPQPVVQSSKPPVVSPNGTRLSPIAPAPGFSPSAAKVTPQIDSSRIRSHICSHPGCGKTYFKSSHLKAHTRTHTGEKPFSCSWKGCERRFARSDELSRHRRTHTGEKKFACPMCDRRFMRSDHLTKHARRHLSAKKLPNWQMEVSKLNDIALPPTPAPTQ

B1: KLF10 consensus DNA-binding sequence (dsDNA)
DNA 1: GCAGTGAAAAGGGGGTGTGTCAGGATGC
DNA 2: GCATCCTGACACACCCCCTTTTCACTGC
  binding result: binds
